Paper PMC6479881, “Structural Comparison of Enterococcus faecalis and Human Thymidylate Synthase Complexes with the Substrate dUMP and Its Analogue FdUMP Provides Hints about Enzyme Conformational Variabilities” (Molecules, 2019)

B1: Enterococcus faecalis thymidylate synthase (enzyme)
chain: MEEAYLALGKKILEEGHFKEDRTGTGTYSLFGYQMRFDLAKGFPLLTTKRVPFGLIKSELLWFLKGDTNIRYLLERNNHIWDEWAFERYVKSADYQGPDMTDFGHRVLQDPAFAEQYKEEHQKFCDAILNDAEFAEKYGELGNIYGAQWRHWETKDGSFIDQLANVIEMIKTNPDSRRLIVSAWNPEDVPSMALPPCHTMFQFYVNEGKLSCQLYQRSADVFLGVPFNIASYALLTHLIAHETGLEVGEFVHTLGDAHLYQNHVEQMQEQLSREVRSFPTLVLNPDKASVFDFDMEDIKVEGYDPHPTIKAPIAV
modifications: dUMP complex: Cys197 as S,S-(2-hydroxylethyl)thiocysteine (CME197) in subunits B and D, oxidized to sulfenic acid (S-oxycysteine, CSX197) in subunits A and C; FdUMP complex: Cys197 thiol reactive
notes: Thymidylate synthase (EC 2.1.1.45) of Enterococcus faecalis; The homodimer is asymmetric: 5-FTHF copurifies in one active site of each dimer; also called EfTS; TS; source: prepared according to an established procedure [5]; purified
B2: human thymidylate synthase (enzyme)
chain: MPVAGSELPRRPLPPAAQERDAEPRPPHGELQYLGQIQHILRCGVRKDDRTGTGTLSVFGMQARYSLRDEFPLLTTKRVFWKGVLEELLWFIKGSTNAKELSSKGVKIWDANGSRDFLDSLGFSTREEGDLGPVYGFQWRHFGAEYRDMESDYSGQGVDQLQRVIDTIKTNPDDRRIIMCAWNPRDLPLMALPPCHALCQFYVVNSELSCQLYQRSGDMGLGVPFNIASYALLTYMIAHITGLKPGDFIHTLGDAHIYLNHIEPLKIQLQREPRPFPKLRILRKVEKIDDFKAEDFQIEGYNPHPTIKMEMAV
notes: Thymidylate synthase (EC 2.1.1.45), human, wild type; expressed from pQE-80L with a not-cleavable N-terminal His6-tag (twelve tag residues); the first twenty-five N-terminal residues and the tag were not traced in the structures; also called hTS; Human TS; source: E. coli BL21(DE3), purified (HisTrap HP); not shown: His6, N-terminal, kept

Experiments:
[1] = molecular target: the molecule itself; test: crystal structure; EfTS 7 mg/mL in 25 mM phosphate buffer pH 6.8, 2 mM DTT, with 100 mM dUMP or 4 mM FdUMP; precipitant 2.2-2.5 M ammonium sulfate, 0.1 M HEPES pH 7.5; room temperature; space group P21, two enzyme dimers in the ASU
[2] = molecular target: the molecule itself; test: crystal structure; hTS 20 mg/mL in 50 mM HEPES pH 7.5, 30 mM NaCl, 20 mM beta-mercaptoethanol, with 40 mM dUMP or 2 mM FdUMP; precipitant 27-30 % PEG4000, 30 mM ammonium sulfate, 0.1 M TRIS pH 9; room temperature; space groups C2 or I2, one and half dimer in the ASU

Row | Protein | binding result [1] | binding result [2]
1 | B1 | binds | 
2 | B2 |  | binds
